# Test results: article PMC11998487 (2025)
# T1: EV71-VP1-His (enterovirus 71 (EV71), UniProt Q66478 566-862, RED-tris-NTA dye on the His tag (in the MST only))
# T1 chain: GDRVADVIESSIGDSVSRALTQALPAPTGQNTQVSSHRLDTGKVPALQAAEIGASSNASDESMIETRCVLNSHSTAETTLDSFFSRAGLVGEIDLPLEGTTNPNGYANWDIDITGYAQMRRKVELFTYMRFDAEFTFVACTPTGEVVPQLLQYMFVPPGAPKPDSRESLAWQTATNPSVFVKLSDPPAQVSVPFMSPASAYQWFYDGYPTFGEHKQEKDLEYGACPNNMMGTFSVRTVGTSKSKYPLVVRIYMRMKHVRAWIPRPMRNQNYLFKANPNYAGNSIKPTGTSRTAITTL
# B1: ZYG11B 1–58-GST (domain or fragment)
# chain: MPEDQAGAAMEEASPYSLLDICLNFLTTHLEKFCSARQDGTLCLQEPGVFPQEVADRL
# Biological target: T1, EV71-VP1-His
# Assay: MST
binder,measurement,value
B1,Kd,5.55 µM
